{
  "source": "paper PMC4263744",
  "about": "“Single Arginine Mutation in Two Yeast Isocitrate Dehydrogenases: Biochemical Characterization and Functional Implication” (PLoS ONE, 2014)",
  "molecules": {"B1": {"name": "ScIDH1 (Saccharomyces cerevisiae S288C) (protein)", "chain": "FSKIKVKQPVVELDGDEMTRIIWDKIKKKLILPYLDVDLKYYDLSVESRDATSDKITQDAAEAIKKYGVGIKCATITPDEARVKEFNLHKMWKSPNGTIRNILGGTVFREPIVIPRIPRLVPRWEKPIIIGRHAHGDQYKATDTLIPGPGSLELVYKPSDPTTAQPQTLKVYDYKGSGVAMAMYNTDESIEGFAHSSFKLAIDKKLNLFLSTKNTILKKYDGRFKDIFQEVYEAQYKSKFEQLGIHYEHRLIDDMVAQMIKSKGGFIMALKNYDGDVQSDIVAQGFGSLGLMTSILVTPDGKTFESEAAHGTVTRHYRKYQKGEETSTNSIASIFAWSRGLLKRGELDNTPALCKFANILESATLNTVQQDGIMTKDLALACGNNERSAYVTTEEFLDAVEKRLQKEIKSIE", "notes": "6xHis-tagged, pET-28b(+), E. coli Rosetta (DE3); transit peptide absent (forward primer encodes M-FSKIKVK); 419 residues per subunit"}, "B2": {"name": "ScIDH1 (Saccharomyces cerevisiae S288C; R148H) (protein)", "chain": "B1 chain with R132H", "notes": "as for B1"}, "B3": {"name": "ScIDH1 (Saccharomyces cerevisiae S288C; R148A) (protein)", "chain": "B1 chain with R132A", "notes": "as for B1"}, "B4": {"name": "YlIDH (Yarrowia lipolytica CLIB122) (protein)", "chain": "MSTTATRGLSTKIKVKNPIVELDGDEMTRIIWKSIKDKLILPYLDIDLKYYDLGIEYRDQTNDQVTIDAAEAIKKYQVGVKCATITPDEARVKEFGLKKMWLSPNGTIRNILGGTVFREPIVIPAVPRLVPGWKEPIIIGRHAHGDQYKAQDAVIPGAGELTLNFKPANGGDEQVIKVYTYDAPGVAMAMYNTDESITGFAYSSFNLALQKKLPLYMSTKNTILKKYDGRFKDIFQEIYDKEYKDKFDAAGIWYEHRLIDDMVAQMIKSKGGFIMALKNYDGDVQSDIVAQGFGSLGLMTSVLVTPDGKTFESEAAHGTVTRHYRQHQQGKETSTNSIASIFAWTRGLIQRGILDETPEVTKFAEALEKATVDTVDKDGIMTKDLALAGGKTDRSSYVLTEEFIDAVANRLKKDLA", "notes": "6xHis-tagged, pET-28b(+), E. coli Rosetta (DE3); forward primer encodes MSTTATR; 422 residues per subunit"}, "B5": {"name": "YlIDH (Yarrowia lipolytica CLIB122; R141H) (protein)", "chain": "B4 chain with R141H", "notes": "as for B4"}},
  "key": {"HcIDH [1]": {"target": "T1, HcIDH (Homo sapiens, UniProt O75874)", "T1 construct": "gene IDH1; synthetic gene, 6xHis-tagged, pET-28b(+), E. coli Rosetta (DE3); 420 residues per subunit", "experiment": "NADPH formation at […] nm, nonlinear regression", "format": "biochemical", "conditions": "0.5 mM NADP+, 2 mM MgCl2, 50 mM Tris-HCl pH 8.0, 25°C; apparent; as D-isocitrate; read-out: Isocitrate ^a / K m"}, "HcIDH [2]": {"target": "T2, HcIDH (Homo sapiens, UniProt O75874, R132H)", "T2 construct": "gene IDH1; synthetic gene, 6xHis-tagged, pET-28b(+), E. coli Rosetta (DE3); 420 residues per subunit", "T2 sequence (O75874 whole entry R132H)": "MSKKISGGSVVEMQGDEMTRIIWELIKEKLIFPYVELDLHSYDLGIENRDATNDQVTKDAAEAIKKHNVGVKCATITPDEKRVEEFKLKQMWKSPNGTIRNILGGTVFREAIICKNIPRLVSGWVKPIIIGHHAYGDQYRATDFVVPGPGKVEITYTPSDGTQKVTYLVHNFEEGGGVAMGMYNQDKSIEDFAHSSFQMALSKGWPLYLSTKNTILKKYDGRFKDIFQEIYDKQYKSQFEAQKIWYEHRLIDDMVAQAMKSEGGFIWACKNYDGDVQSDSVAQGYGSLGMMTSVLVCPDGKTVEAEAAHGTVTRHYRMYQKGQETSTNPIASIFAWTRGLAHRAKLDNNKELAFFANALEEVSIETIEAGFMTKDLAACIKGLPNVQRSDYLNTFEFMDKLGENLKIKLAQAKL", "experiment": "NADPH formation at […] nm, linear regression", "format": "biochemical", "conditions": "0.5 mM NADP+, 2 mM MgCl2, 50 mM Tris-HCl pH 8.0, 25°C; apparent; as D-isocitrate; read-out: Isocitrate ^a / K m"}, "HcIDH [3]": {"target": "T2, HcIDH", "experiment": "NADPH consumption at […] nm", "format": "biochemical", "conditions": "2 mM MgCl2, 50 mM Tris-HCl pH 8.0, neomorphic reduction to 2-HG, read-out: α-KG / K m"}, "purified protein [4]": {"substrate": "NC(=O)c1ccc[n+]([C@@H]2O[C@H](COP(=O)(O)OP(=O)(O)OC[C@H]3O[C@@H](n4cnc5c(N)ncnc54)[C@H](OP(=O)(O)O)[C@@H]3O)[C@@H](O)[C@H]2O)c1", "experiment": "purified protein", "format": "biochemical, Saccharomyces cerevisiae", "conditions": "isocitrate, MgCl2, 50 mM Tris-HCl pH 8.0, 25°C, varied: cofactor"}, "purified protein [5]": {"substrate": "O=C(O)C[C@H](C(=O)O)[C@@H](O)C(=O)O", "experiment": "purified protein", "format": "biochemical, Saccharomyces cerevisiae", "conditions": "0.5 mM NADP+, 2 mM MgCl2, 50 mM Tris-HCl pH 8.0, 25°C, apparent, as D-isocitrate"}, "purified protein [6]": {"substrate": "NC(=O)C1=CN([C@@H]2O[C@H](COP(=O)(O)OP(=O)(O)OC[C@H]3O[C@@H](n4cnc5c(N)ncnc54)[C@H](OP(=O)(O)O)[C@@H]3O)[C@@H](O)[C@H]2O)C=CC1", "experiment": "purified protein", "format": "biochemical, Saccharomyces cerevisiae", "conditions": "α-KG, 2 mM MgCl2, 50 mM Tris-HCl pH 8.0, neomorphic reduction, varied: cofactor"}, "purified protein [7]": {"substrate": "O=C(O)CCC(=O)C(=O)O", "experiment": "purified protein", "format": "biochemical, Saccharomyces cerevisiae", "conditions": "NADPH, 2 mM MgCl2, 50 mM Tris-HCl pH 8.0, neomorphic reduction to 2-HG"}, "purified protein [8]": {"substrate": "NC(=O)c1ccc[n+]([C@@H]2O[C@H](COP(=O)(O)OP(=O)(O)OC[C@H]3O[C@@H](n4cnc5c(N)ncnc54)[C@H](OP(=O)(O)O)[C@@H]3O)[C@@H](O)[C@H]2O)c1", "experiment": "purified protein", "format": "biochemical, Yarrowia lipolytica", "conditions": "isocitrate, MgCl2, 50 mM Tris-HCl pH 8.0, 25°C, varied: cofactor"}, "purified protein [9]": {"substrate": "O=C(O)C[C@H](C(=O)O)[C@@H](O)C(=O)O", "experiment": "purified protein", "format": "biochemical, Yarrowia lipolytica", "conditions": "0.5 mM NADP+, 2 mM MgCl2, 50 mM Tris-HCl pH 8.0, 25°C, apparent, as D-isocitrate"}, "purified protein [10]": {"substrate": "NC(=O)C1=CN([C@@H]2O[C@H](COP(=O)(O)OP(=O)(O)OC[C@H]3O[C@@H](n4cnc5c(N)ncnc54)[C@H](OP(=O)(O)O)[C@@H]3O)[C@@H](O)[C@H]2O)C=CC1", "experiment": "purified protein", "format": "biochemical, Yarrowia lipolytica", "conditions": "α-KG, 2 mM MgCl2, 50 mM Tris-HCl pH 8.0, neomorphic reduction, varied: cofactor"}, "purified protein [11]": {"substrate": "O=C(O)CCC(=O)C(=O)O", "experiment": "purified protein", "format": "biochemical, Yarrowia lipolytica", "conditions": "NADPH, 2 mM MgCl2, 50 mM Tris-HCl pH 8.0, neomorphic reduction to 2-HG"}},
  "note": "Substitutions are numbered along the chain they refer to. Names may count otherwise.",
  "data": [
    {"molecule": "O=C(O)C[C@H](C(=O)O)[C@@H](O)C(=O)O", "note": "[isocitrate]", "values": [
      {"measurement": "Km", "setting": "HcIDH [1]", "result": "5.7 ± 1.4", "unit": "µM"},
      {"measurement": "Km", "setting": "HcIDH [2]", "result": "2280 ± 195", "unit": "µM"}
    ]},
    {"molecule": "O=C(O)CCC(=O)C(=O)O", "note": "[α-KG]", "values": [
      {"measurement": "Km", "setting": "HcIDH [3]", "result": "157 ± 38.4", "unit": "µM"}
    ]},
    {"molecule": "B1", "values": [
      {"measurement": "Km", "setting": "purified protein [4]", "result": "17.4 ± 2.01", "unit": "µM"},
      {"measurement": "Km", "setting": "purified protein [5]", "result": "10.5 ± 1.2", "unit": "µM"},
      {"measurement": "kcat", "setting": "purified protein [5]", "result": "26.3 ± 0.09", "unit": "s⁻¹"},
      {"measurement": "kcat/Km", "setting": "purified protein [5]", "result": "2.5e+06", "unit": "M⁻¹ s⁻¹"}
    ]},
    {"molecule": "B2", "values": [
      {"measurement": "Km", "setting": "purified protein [6]", "result": "5.9 ± 0.51", "unit": "µM"},
      {"measurement": "Km", "setting": "purified protein [7]", "result": "30.0 ± 1.76", "unit": "µM"},
      {"measurement": "kcat", "setting": "purified protein [7]", "result": "0.34 ± 0.009", "unit": "s⁻¹"},
      {"measurement": "kcat/Km", "setting": "purified protein [7]", "result": 11000, "unit": "M⁻¹ s⁻¹"},
      {"measurement": "Km", "setting": "purified protein [5]", "result": "24.8 ± 3.2", "unit": "µM"},
      {"measurement": "kcat", "setting": "purified protein [5]", "result": "0.27 ± 0.015", "unit": "s⁻¹"},
      {"measurement": "kcat/Km", "setting": "purified protein [5]", "result": 11000, "unit": "M⁻¹ s⁻¹"}
    ]},
    {"molecule": "B3", "values": [
      {"measurement": "Km", "setting": "purified protein [5]", "result": "2263.1 ± 177.3", "unit": "µM"},
      {"measurement": "kcat", "setting": "purified protein [5]", "result": "12.4 ± 5.31", "unit": "s⁻¹"},
      {"measurement": "kcat/Km", "setting": "purified protein [5]", "result": 5000, "unit": "M⁻¹ s⁻¹"}
    ]},
    {"molecule": "B4", "values": [
      {"measurement": "Km", "setting": "purified protein [8]", "result": "4.1 ± 0.76", "unit": "µM"},
      {"measurement": "Km", "setting": "purified protein [9]", "result": "11.7 ± 1.1", "unit": "µM"},
      {"measurement": "kcat", "setting": "purified protein [9]", "result": "26.6 ± 0.87", "unit": "s⁻¹"},
      {"measurement": "kcat/Km", "setting": "purified protein [9]", "result": "2.3e+06", "unit": "M⁻¹ s⁻¹"}
    ]},
    {"molecule": "B5", "values": [
      {"measurement": "Km", "setting": "purified protein [10]", "result": "3.2 ± 0.43", "unit": "µM"},
      {"measurement": "Km", "setting": "purified protein [11]", "result": "47.3 ± 4.2", "unit": "µM"},
      {"measurement": "kcat", "setting": "purified protein [11]", "result": "0.43 ± 0.017", "unit": "s⁻¹"},
      {"measurement": "kcat/Km", "setting": "purified protein [11]", "result": 9000, "unit": "M⁻¹ s⁻¹"},
      {"measurement": "Km", "setting": "purified protein [9]", "result": "25.6 ± 2.3", "unit": "µM"},
      {"measurement": "kcat", "setting": "purified protein [9]", "result": "0.14 ± 0.006", "unit": "s⁻¹"},
      {"measurement": "kcat/Km", "setting": "purified protein [9]", "result": 5000, "unit": "M⁻¹ s⁻¹"}
    ]}
  ]
}
